What was measured:
[1] = target: Porcine circovirus type 2 (PCV2) virus particles (capsid of Cap) (porcine circovirus type 2 (genotype 2d, strain ChenZ-2-1))
[2] = target: PCV2 virus-like particles (VLPs) assembled from the capsid protein (Cap) (porcine circovirus type 2 (genotype 2d, strain ChenZ-2-1))
[3] = target: Annexin A2 (endogenous, PK-15 cells) (pig (endogenous in PK-15)) (UniProt P19620)
[4] = target: Annexin A2 (endogenous, PK-15 cells) (pig (endogenous in PK-15)) (UniProt P19620); remark: listed apart in the source

Sequence of UniProt P19620 (P19620 whole entry): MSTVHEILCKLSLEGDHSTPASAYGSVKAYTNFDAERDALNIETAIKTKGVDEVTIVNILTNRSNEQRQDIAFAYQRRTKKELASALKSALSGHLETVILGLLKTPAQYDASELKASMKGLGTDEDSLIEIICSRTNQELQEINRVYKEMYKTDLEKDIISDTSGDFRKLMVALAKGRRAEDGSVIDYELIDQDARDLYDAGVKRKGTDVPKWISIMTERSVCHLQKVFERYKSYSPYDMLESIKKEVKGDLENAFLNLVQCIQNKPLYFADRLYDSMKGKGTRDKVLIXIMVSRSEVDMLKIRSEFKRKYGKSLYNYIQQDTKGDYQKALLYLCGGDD

Substance: recombinant soluble full-length porcine ANXA2 with an N-terminal His-tag (pET-28a(+)) (from UniProt P19620 1-339) (natural protein)
- inhibition of PCV2 attachment to PK-15 cells at 4 °C (bound virus by qPCR) after preincubation of PCV2 with rANXA2 (20 μg/mL); blocks PCV2 and cell surface ANXA2 [1]: 32.7%
- decrease of PCV2 VLP binding to PK-15 cells at 4 °C (immunofluorescence with anti-Cap antibody, fluorescence intensity) after preincubation of VLPs with rANXA2 (20 μg/mL) [2]: 19.4%

Substance: Porcine circovirus type 2 (PCV2) virus particles (capsid of Cap) (complex)
- decrease in PCV2 infectivity by IFA (Cap fluorescence) in PK-15 cells pretreated with ANXA2-specific polyclonal antibody, against control cells [3]: 30%
- reduction of viral genome copies in PK-15 cells at 36 hpi (qPCR) after pretreatment of the cells with anti-ANXA2 polyclonal antibody at 10 and 30 μg/mL [3]: 42.7%
- reduction of PCV2 particles attached to PK-15 cells at 4 °C (qPCR) after pretreatment of the cells with ANXA2-specific antibody (30 μg/mL) [4]: 25.2%

Reference: paper PMC12512739
